In this assay the target is E. coli small ribosomal 30S subunit (E. coli (MRE600)) (UniProt P0AG67).

Chain of E. coli RNA polymerase core complex (P0A7Z4 whole entry): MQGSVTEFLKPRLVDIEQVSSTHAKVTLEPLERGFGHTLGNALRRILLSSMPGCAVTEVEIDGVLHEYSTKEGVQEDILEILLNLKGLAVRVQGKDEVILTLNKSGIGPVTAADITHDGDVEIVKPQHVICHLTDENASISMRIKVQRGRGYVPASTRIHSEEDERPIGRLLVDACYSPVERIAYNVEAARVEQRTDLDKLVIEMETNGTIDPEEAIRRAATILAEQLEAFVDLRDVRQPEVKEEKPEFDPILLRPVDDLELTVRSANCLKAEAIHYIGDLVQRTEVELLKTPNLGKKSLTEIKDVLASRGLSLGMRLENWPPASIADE
Chain of E. coli RNA polymerase core complex (P0A8V2 2-1341): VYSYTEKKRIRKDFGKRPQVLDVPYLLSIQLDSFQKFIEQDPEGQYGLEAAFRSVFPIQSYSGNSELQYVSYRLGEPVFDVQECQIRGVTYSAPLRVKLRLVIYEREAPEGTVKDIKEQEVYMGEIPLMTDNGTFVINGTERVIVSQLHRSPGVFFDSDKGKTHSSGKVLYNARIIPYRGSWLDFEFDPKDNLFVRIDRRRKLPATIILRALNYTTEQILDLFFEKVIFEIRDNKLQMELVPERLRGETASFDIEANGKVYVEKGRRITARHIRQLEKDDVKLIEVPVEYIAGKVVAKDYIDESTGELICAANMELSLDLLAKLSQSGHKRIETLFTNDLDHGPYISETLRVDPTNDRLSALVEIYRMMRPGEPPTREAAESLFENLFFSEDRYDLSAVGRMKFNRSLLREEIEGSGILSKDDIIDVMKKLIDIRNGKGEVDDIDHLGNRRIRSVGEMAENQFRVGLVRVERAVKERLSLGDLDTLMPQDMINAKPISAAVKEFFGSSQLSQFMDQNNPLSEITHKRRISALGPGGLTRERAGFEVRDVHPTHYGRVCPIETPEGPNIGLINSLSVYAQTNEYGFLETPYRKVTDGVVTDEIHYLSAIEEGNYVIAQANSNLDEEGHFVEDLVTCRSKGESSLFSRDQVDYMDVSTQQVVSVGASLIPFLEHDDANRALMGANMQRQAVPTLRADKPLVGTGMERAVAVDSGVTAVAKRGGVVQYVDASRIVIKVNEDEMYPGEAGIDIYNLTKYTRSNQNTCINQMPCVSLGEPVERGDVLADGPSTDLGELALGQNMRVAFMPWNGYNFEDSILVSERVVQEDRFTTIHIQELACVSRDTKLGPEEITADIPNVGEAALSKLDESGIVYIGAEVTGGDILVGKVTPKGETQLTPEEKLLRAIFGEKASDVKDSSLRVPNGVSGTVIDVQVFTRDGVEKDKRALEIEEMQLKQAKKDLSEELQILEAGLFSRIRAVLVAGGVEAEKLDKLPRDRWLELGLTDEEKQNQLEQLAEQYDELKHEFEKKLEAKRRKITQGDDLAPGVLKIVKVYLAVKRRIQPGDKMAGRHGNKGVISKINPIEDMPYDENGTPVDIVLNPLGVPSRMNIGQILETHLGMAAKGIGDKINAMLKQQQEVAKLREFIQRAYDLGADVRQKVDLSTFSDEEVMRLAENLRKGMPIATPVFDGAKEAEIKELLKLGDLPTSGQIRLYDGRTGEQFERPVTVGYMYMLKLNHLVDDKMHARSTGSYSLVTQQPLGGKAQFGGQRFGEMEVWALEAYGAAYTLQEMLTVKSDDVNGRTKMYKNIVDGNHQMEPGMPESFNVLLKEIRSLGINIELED
Chain of E. coli RNA polymerase core complex (P0A8T7 8-1376): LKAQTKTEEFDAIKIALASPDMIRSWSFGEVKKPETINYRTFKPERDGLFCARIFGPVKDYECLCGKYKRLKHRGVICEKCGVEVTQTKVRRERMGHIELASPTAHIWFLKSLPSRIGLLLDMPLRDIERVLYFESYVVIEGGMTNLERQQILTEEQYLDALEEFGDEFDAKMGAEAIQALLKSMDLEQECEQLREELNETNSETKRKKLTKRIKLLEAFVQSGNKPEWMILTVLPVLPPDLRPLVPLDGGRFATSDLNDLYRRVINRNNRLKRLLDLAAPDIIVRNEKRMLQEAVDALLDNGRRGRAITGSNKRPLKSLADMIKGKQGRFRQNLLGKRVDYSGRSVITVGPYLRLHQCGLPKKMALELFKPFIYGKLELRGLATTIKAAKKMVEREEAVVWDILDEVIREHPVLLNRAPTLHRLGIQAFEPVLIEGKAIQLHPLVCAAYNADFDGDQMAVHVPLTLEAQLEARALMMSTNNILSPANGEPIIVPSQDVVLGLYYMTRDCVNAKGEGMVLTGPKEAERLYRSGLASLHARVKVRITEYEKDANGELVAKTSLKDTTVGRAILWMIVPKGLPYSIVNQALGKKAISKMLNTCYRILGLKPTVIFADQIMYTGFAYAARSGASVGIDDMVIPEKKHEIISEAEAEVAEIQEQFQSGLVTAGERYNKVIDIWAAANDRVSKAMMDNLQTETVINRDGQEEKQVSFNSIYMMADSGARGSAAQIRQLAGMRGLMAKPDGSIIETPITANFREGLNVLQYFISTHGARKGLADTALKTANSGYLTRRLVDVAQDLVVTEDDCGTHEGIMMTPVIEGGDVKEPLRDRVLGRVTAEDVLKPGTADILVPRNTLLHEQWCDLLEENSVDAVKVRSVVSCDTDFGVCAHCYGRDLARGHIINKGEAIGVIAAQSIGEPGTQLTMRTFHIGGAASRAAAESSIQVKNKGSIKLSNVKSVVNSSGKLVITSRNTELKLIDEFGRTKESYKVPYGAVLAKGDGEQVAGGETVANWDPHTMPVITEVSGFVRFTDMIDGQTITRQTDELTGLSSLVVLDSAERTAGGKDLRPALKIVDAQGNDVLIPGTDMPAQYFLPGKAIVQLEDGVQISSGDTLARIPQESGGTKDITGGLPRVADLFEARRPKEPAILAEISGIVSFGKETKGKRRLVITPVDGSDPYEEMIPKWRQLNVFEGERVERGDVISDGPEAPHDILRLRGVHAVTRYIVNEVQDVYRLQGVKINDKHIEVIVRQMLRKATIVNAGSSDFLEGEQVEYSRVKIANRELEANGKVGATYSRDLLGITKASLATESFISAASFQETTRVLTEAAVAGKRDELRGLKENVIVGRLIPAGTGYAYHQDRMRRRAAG
Chain of E. coli RNA polymerase core complex (P0A800 whole entry): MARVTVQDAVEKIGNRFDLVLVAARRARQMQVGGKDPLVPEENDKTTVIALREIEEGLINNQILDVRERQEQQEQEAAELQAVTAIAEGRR

As usually defined, the Kd is the free concentration of one partner at which half of the binding sites on the other are occupied at equilibrium, for simple one-to-one binding. High values mean lower affinity, low ones higher affinity. Substance “E. coli RNA polymerase core complex (from UniProt P0A7Z4 1-329; P0A8V2 2-1341; P0A8T7 8-1376; P0A800 1-91) (complex; C-terminal 6xHis tag on beta' omitted; Zn-bound beta' Zn-finger; core without sigma; K12 sequences assumed)” came in with a Kd of 21 nM. In other words, the double-digit nanomolar range.

The values are drawn from article PMC5655137.
